The target in test [1] is T1, human GPR116 with C-terminal fused FLAG, stably overexpressed (human, UniProt Q8IZF2 22-1346).
T1 construct: human GPR116, recombined from the pEntry1a GPR116 plasmid into plenti6/V5 DEST; Same construct in two HEK293 lines; also called GPR116 OE; HEK293T GPR116 (human) OE cells; not shown: FLAG, C-terminal, kept
T1 sequence (looked up): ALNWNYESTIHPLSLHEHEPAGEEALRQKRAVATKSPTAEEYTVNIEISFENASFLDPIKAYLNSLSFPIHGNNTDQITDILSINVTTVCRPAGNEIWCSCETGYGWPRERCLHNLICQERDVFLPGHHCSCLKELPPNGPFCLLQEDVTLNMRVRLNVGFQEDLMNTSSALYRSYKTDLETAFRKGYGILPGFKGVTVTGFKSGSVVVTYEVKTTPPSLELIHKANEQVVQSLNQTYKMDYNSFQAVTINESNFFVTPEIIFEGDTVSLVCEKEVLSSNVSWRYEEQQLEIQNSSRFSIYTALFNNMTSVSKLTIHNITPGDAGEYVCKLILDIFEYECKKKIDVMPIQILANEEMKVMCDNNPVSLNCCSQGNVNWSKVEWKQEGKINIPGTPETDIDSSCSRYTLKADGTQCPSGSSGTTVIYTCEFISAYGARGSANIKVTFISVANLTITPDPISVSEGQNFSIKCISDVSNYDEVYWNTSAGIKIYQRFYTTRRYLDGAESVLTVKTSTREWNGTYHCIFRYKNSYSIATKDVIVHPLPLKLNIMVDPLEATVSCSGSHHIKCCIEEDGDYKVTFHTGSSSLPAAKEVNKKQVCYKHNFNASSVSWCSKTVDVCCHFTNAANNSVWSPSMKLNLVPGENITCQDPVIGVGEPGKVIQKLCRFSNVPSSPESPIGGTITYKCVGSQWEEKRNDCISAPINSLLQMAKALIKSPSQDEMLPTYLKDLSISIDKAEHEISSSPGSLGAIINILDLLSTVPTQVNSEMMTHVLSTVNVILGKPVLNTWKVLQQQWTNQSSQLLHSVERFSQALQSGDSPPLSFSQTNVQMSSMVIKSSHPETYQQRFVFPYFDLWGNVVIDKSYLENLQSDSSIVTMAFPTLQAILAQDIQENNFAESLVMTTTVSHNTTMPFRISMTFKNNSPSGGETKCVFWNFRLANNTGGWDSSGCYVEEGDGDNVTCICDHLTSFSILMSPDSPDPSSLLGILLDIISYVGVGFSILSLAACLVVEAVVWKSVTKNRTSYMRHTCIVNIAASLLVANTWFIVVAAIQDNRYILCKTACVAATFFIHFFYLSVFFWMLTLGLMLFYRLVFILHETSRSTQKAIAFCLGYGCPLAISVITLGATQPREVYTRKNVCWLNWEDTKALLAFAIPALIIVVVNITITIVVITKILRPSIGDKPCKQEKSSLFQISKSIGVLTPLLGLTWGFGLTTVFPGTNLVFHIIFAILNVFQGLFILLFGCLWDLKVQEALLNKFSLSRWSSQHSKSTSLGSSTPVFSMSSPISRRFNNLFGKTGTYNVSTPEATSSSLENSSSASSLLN
The test is described as follows: flow cytometry on cells; saturation binding of FcsFNDC4 or Fc control on HEK293T cells with stable human GPR116-FLAG OE or mock cells; also in excess of sFNDC4 (1 mM) for non-specific binding; 4 °C, PBS with 3% FBS; anti-human IgG-PE; Kd from specific binding. The conditions noted are these: one partner purified. A general note: In flow cytometry, cells or beads pass a laser one at a time.

In test [2] the target is T1, human GPR116 with C-terminal fused …. The test is described as follows: flow cytometry on cells; saturation binding of FcsFNDC4 or Fc control on HEK293A cells with stable human GPR116-FLAG OE or mock cells; 4 °C, PBS with 3% FBS; anti-human IgG-PE; Kd from total binding. The following applies: one partner purified.

B1: 6xHis-Fc-sFNDC4 fusion protein (extracellular part of mouse FNDC4 fused with human IgG Fc) (Fc fusion)
chain: RPPSPVNVTVTHLRANSATVSWDVPEGNIVIGYSISQQRQNGPGQRVIREVNTTTRACALWGLAEDSDYTVQVRSIGLRGESPPGPRVHFRTLKGSDRLPSNSSSPGDITVEGLDGERPLQTGE
notes: extracellular part of mouse FNDC4 (sFNDC4), stated as aa 40-160; also called FcFNDC4; FcsF4; not shown: 6xHis, N-terminal, kept; Fc (human IgG), N-terminal, kept
Broadly, the Kd is the constant that tells how readily two partners part at equilibrium. A low value points to tighter binding. With B1, the values for the Kd in test [1] and in test [2] were 0.025 ± 0.005 µM and 0.033 ± 0.01 µM, respectively.

The values are drawn from PMC8137956, “Orphan GPR116 mediates the insulin sensitizing effects of the hepatokine FNDC4 in adipose tissue” (Nature Communications, 2021).
